According to paper PMC4682053, “Mechanisms of assembly and genome packaging in an RNA virus revealed by high-resolution cryo-EM” (Nature Communications, 2015):

Target: the molecule itself
Test: cryo-EM structure; CPMV eVLP purified from N. benthamiana leaves, ~4.2 mg/ml on the grid; single particles, icosahedral symmetry imposed; 3.04 Å; atomic model built de novo

B1: Cowpea mosaic virus Small (S) coat protein with its C-terminal extension, in the empty virus-like particle (eVLP) (natural protein)
chain: GPVCAEASDVYSPCMIASTPPAPFSDVTAVTFDLINGKITPVGDDNWNTHIYNPPIMNVLRTAAWKSGTIHVQLNVRGAGVKRADWDGQVFVYLRQSMNPESYDARTFVISQPGSAMLNFSFDIIGPNSGFEFAESPWANQTTWYLECVATNPRQIQQFEVNMRFDPNFRVAGNILMPPFPLSTETPPLLKFRFRDIERSKRSVMVGHTATAA
notes: Small (S) coat protein of cowpea mosaic virus, cut from the RNA-2-encoded precursor VP60 by the 24K proteinase; C-terminal 24 amino acids (190-213) kept; modelled up to Arg202, without 184-189; numbers count on: the S subunit; the particles imaged kept it; also called S subunit; small coat protein; source: N. benthamiana, agroinfiltrated with pEAQ-HT-VP60 and pEAQ-HT-24K or pEAQexpress-VP60-24K; …
  stoichiometry N: 5
